This is an account of results in paper PMC7969019 (Nucleic Acids Research, 2020).

Where no end group is shown, it is not given here. [ ]: non-standard residue; d: D form. pT = C[C@@H](OP(=O)(O)O)[C@H](N)C(=O)O; pS = N[C@@H](COP(=O)(O)O)C(=O)O

The test concerns the target T1, human TFIIH p62 residues 1-158 (tandem PH and BSD1 domains) (human, UniProt P32780 1-158).
T1 sequence (looked up): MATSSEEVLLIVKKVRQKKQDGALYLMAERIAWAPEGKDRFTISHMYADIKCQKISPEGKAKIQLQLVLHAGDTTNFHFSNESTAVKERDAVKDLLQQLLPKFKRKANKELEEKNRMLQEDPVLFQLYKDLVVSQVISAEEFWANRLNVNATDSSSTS
As to the kind of experiment: NMR titration.

B1: XPC (residues 124-142) (peptide, UniProt Q01831 124-142, looked up)
peptide: EEEEESENDWEEVEELSEP
For the molecule B1, the binding result is “binds”.

B2: TFIIEα (residues 378-439), acidic domain (domain or fragment, UniProt P29083 378-439, looked up)
chain: EEDEEEDDEFEEVADDPIVMVAGRPFSYSEVSQRPELVAQMTPEEKEAYIAMGQRMFEDLFE
As for B2, the binding result is reported as “binds”.

B3: Ser46- and Thr55-phosphorylated p53 (residues 41-62) (peptide, UniProt P04637 41-62, looked up)
peptide: DDLML[pS]PDDIEQWF[pT]EDPGPDE
As to B3, the binding result is on record as “binds”.

B4: UVSSA (residues 399-419) (peptide, UniProt Q2YD98 399-419, looked up)
peptide: AEEDEDDEDFVEVPEKEGYEP
Turning to B4, the binding result is given as “binds”.
